Drawing on publication doi:10.1101/102822, this text covers Kd and stoichiometry N for two substances.

Like-named read-outs stand apart in the source and are kept apart here.

Experiment [1] deals with Human VEGFR-1 D1-7 (residues 1-750), full-length extracellular domain (human) (UniProt P17948). As to the kind of experiment: ITC.
In experiment [2] the target is Human VEGFR-1 D1-3 (residues 1-339) (human) (UniProt P17948). As to the kind of experiment: ITC. For orientation: ITC needs no label: the signal is the heat of the interaction.
The target of experiment [3] is Human VEGFR-1 D1-7 (residues 1-750), full-length extracellular domain (human) (UniProt P17948). Briefly: SEC-MALS. (Size exclusion chromatography separates by hydrodynamic size, large species first.)
Experiment [4] deals with Human VEGFR-1 D1-6 (residues 1-660) (human) (UniProt P17948). As to the kind of experiment: crystal structure.
For experiment [5], the target named is Human VEGFR-1 D2-7 (residues 132-750) (human) (UniProt P17948). As to the kind of experiment: crystal structure.

Human VEGF-A121: the Kd (usually the concentration at which binding is half-saturated) in experiment [1] (ligand) was determined as 1.7 nM.

As for Human VEGF-A121 (ligand), the Kd in experiment [1] amounted to 2 nM; in experiment [2], 50 nM. The stoichiometry N in experiment [3], in experiment [4] and in experiment [5] was 1 in each case.
